Consider 1 molecule from paper PMC12575849, “Condensation-dependent interactome of a chromatin remodeler underlies tumor suppressor activities” (Nature Communications, 2025).

The term Kd denotes a measure of binding affinity in units of concentration.

This experiment concerns the target unmodified nucleosome (recombinant human histone octamer on Widom 601 DNA) (human, UniProt P04908 1-130; O60814 1-126; P68431 1-136; P62805 1-103). Description: native gel or EMSA; purified CHD1 titrated against 5 nM IR dye-conjugated nucleosome in EMSA buffer (10 mM HEPES pH 8.0, 75 mM NaCl, 5 mM MgCl2, 10% glycerol, 1 mM DTT, 0.1 mg/ml BSA), 30 min at 30 °C, native PAGE; shifted fraction fitted to a dose-response curve. The settings on record: both partners purified. For orientation: Mobility shift assays separate free from complexed probe on a gel.

B1: recombinant CHD1^ΔNC protein (domain or fragment)
chain: EEEFETIERFMDCRIGRKGATGATTTIYAVEADGDPNAGFEKNKEPGEIQYLIKWKGWSHIHNTWETEETLKQQNVRGMKKLDNYKKKDQETKRWLKNASPEDVEYYNCQQELTDDLHKQYQIVERIIAHSNQKSAAGYPDYYCKWQGLPYSECSWEDGALISKKFQACIDEYFSRNQSKTTPFKDCKVLKQRPRFVALKKQPSYIGGHEGLELRDYQLNGLNWLAHSWCKGNSCILADEMGLGKTIQTISFLNYLFHEHQLYGPFLLVVPLSTLTSWQREIQTWASQMNAVVYLGDINSRNMIRTHEWTHHQTKRLKFNILLTTYEILLKDKAFLGGLNWAFIGVDEAHRLKNDDSLLYKTLIDFKSNHRLLITGTPLQNSLKELWSLLHFIMPEKFSSWEDFEEEHGKGREYGYASLHKELEPFLLRRVKKDVEKSLPAKVEQILRMEMSALQKQYYKWILTRNYKALSKGSKGSTSGFLNIMMELKKCCNHCYLIKPPDNNEFYNKQEALQHLIRSSGKLILLDKLLIRLRERGNRVLIFSQMVRMLDILAEYLKYRQFPFQRLDGSIKGELRKQALDHFNAEGSEDFCFLLSTRAGGLGINLASADTVVIFDSDWNPQNDLQAQARAHRIGQKKQVNIYRLVTKGSVEEDILERAKKKMVLDHLVIQRMDTTGKTVLHTGSAPSSSTPFNKEELSAILKFGAEELFKEPEGEEQEPQEMDIDEILKRAETHENEPGPLTVGDELLSQFKVANFSNMDEDDIELEPERNSKNWEEIIPEDQRRRLEEEERQKELEEIYMLPRMRNCAKQISFNGSEGRRSRSRRYSGSDSDSISEGKRPKKRGRPRTIPRENIKGFSDAEIRRFIKSYKKFGGPLERLDAIARDAELVDKSETDLRRLGELVHNGCIKALKDSSSGTERTGGRLGKVKGPTFRISGVQVNAKLVISHEEELIPLHKSIPSDPEERKQYTIPCHTKAAHFDIDWGKEDDSNLLIGIYEYGYGSWEMIKMDPDLSLTHKILPDDPDKKPQAKQLQTRADYLIKLLSRDLAKKEALSGAGSSKRRKARAKKNKA
B1: the Kd came to 6.3 nM.
